Source: patent US20070219139A1 (POSCO, published 2007)
Where no end group is shown, it is not given here. [ ]: non-standard residue; d: D form.

Legend:
Assay in all cases: cell-based or functional assay
[1] = biological target: T1, formyl peptide receptor-like 1 (UniProt P25090 1-351, limits assumed)
T1 sequence (looked up): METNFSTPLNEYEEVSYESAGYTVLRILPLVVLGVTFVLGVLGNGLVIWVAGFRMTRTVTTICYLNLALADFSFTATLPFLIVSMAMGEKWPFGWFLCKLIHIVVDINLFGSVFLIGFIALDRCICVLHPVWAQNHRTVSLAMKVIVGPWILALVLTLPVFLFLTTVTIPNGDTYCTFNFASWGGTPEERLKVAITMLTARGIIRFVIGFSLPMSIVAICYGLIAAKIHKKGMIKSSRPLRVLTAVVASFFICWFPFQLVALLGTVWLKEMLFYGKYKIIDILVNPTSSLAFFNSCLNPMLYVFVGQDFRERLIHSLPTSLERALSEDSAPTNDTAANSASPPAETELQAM

formyl peptide receptor [2] = biological target: T2, formyl peptide receptor (UniProt P21462 1-350, limits assumed)
T2 sequence (looked up): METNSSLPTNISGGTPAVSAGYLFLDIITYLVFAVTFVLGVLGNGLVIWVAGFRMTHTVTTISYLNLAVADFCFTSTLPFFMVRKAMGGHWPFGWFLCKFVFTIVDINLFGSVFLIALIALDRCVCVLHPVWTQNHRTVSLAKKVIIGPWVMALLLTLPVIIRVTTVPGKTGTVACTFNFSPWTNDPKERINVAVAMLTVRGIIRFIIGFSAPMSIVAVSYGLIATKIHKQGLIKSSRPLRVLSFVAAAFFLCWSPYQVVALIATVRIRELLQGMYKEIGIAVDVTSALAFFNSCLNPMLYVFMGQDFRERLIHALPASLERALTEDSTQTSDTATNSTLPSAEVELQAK

formyl peptide receptor [3] = biological target: T2, formyl peptide receptor; remark: listed apart in the source

Binder	EC50 of intracellular calcium increase in FPRL1-expressing RBL-2H3 cells (fura-2) [1]	EC50 of intracellular calcium increase in FPR-expressing RBL-2H3 cells (fura-2) (formyl peptide receptor [2])	[Ca^2+]i increase in FPR-expressing RBL-2H3 cells (formyl peptide receptor [3])
WKEMV[dM]-NH2 (N-terminus assumed; SMILES CSCC[C@H](NC(=O)[C@H](CCC(=O)O)NC(=O)[C@H](CCCCN)NC(=O)[C@@H](N)Cc1c[nH]c2ccccc12)C(=O)N[C@H](C(=O)N[C@H](CCSC)C(N)=O)C(C)C) [Trp-Lys-Glu-Met-Val-D-Met-NH2]	28.3 nM	1330 nM	
WKWMV[dM]-NH2 (N-terminus assumed; SMILES CSCC[C@H](NC(=O)[C@H](Cc1c[nH]c2ccccc12)NC(=O)[C@H](CCCCN)NC(=O)[C@@H](N)Cc1c[nH]c2ccccc12)C(=O)N[C@H](C(=O)N[C@H](CCSC)C(N)=O)C(C)C) [Trp-Lys-Trp-Met-Val-D-Met-NH2]	0.16 nM	18.8 nM	
WKDMV[dM]-NH2 (N-terminus assumed; SMILES CSCC[C@H](NC(=O)[C@H](CC(=O)O)NC(=O)[C@H](CCCCN)NC(=O)[C@@H](N)Cc1c[nH]c2ccccc12)C(=O)N[C@H](C(=O)N[C@H](CCSC)C(N)=O)C(C)C) [Trp-Lys-Asp-Met-Val-D-Met-NH2]	8.73 nM	1330 nM	
WKFMV[dM]-NH2 (N-terminus assumed; SMILES CSCC[C@H](NC(=O)[C@H](Cc1ccccc1)NC(=O)[C@H](CCCCN)NC(=O)[C@@H](N)Cc1c[nH]c2ccccc12)C(=O)N[C@H](C(=O)N[C@H](CCSC)C(N)=O)C(C)C) [Trp-Lys-Phe-Met-Val-D-Met-NH2]	0.23 nM	17.7 nM	
WKYMY[dM]-NH2 (N-terminus assumed; SMILES CSCC[C@H](NC(=O)[C@H](Cc1ccc(O)cc1)NC(=O)[C@H](CCCCN)NC(=O)[C@@H](N)Cc1c[nH]c2ccccc12)C(=O)N[C@@H](Cc1ccc(O)cc1)C(=O)N[C@H](CCSC)C(N)=O) [Trp-Lys-Tyr-Met-Tyr-D-Met-NH2]	0.29 nM	665 nM	
YMV[dM]-NH2 [Tyr-Met-Val-D-Met-NH2]	17.1 nM	569 nM	
WKRMV[dM]-NH2 (N-terminus assumed; SMILES CSCC[C@H](NC(=O)[C@H](CCCNC(=N)N)NC(=O)[C@H](CCCCN)NC(=O)[C@@H](N)Cc1c[nH]c2ccccc12)C(=O)N[C@H](C(=O)N[C@H](CCSC)C(N)=O)C(C)C) [Trp-Lys-Arg-Met-Val-D-Met-NH2]	2.06 nM		
WKGMV[dM]-NH2 (N-terminus assumed; SMILES CSCC[C@H](NC(=O)CNC(=O)[C@H](CCCCN)NC(=O)[C@@H](N)Cc1c[nH]c2ccccc12)C(=O)N[C@H](C(=O)N[C@H](CCSC)C(N)=O)C(C)C) [Trp-Lys-Gly-Met-Val-D-Met-NH2]	21.3 nM		> 20 µM
WKYMVR-NH2 [Trp-Lys-Tyr-Met-Val-Arg-NH2]	178 nM		> 20 µM
WKYMVE-NH2 [Trp-Lys-Tyr-Met-Val-Glu-NH2]	503 nM		> 20 µM
WKYMG[dM]-NH2 (N-terminus assumed; SMILES CSCC[C@H](NC(=O)[C@H](Cc1ccc(O)cc1)NC(=O)[C@H](CCCCN)NC(=O)[C@@H](N)Cc1c[nH]c2ccccc12)C(=O)NCC(=O)N[C@H](CCSC)C(N)=O) [Trp-Lys-Tyr-Met-Gly-D-Met-NH2]	18.1 nM		> 20 µM
WKYMVG-NH2 [Trp-Lys-Tyr-Met-Val-Gly-NH2]	5950 nM		> 20 µM
WKYMVV-NH2 [Trp-Lys-Tyr-Met-Val-Val-NH2]	1260 nM		> 20 µM
WKYMVW-NH2 [Trp-Lys-Tyr-Met-Val-Trp-NH2]	194 nM		> 20 µM
WRYMV[dM]-NH2 (N-terminus assumed; SMILES CSCC[C@H](NC(=O)[C@H](Cc1ccc(O)cc1)NC(=O)[C@H](CCCNC(=N)N)NC(=O)[C@@H](N)Cc1c[nH]c2ccccc12)C(=O)N[C@H](C(=O)N[C@H](CCSC)C(N)=O)C(C)C) [Trp-Arg-Tyr-Met-Val-D-Met-NH2]	0.12 nM	54.9 nM	
WEYMV[dM]-NH2 (N-terminus assumed; SMILES CSCC[C@H](NC(=O)[C@H](Cc1ccc(O)cc1)NC(=O)[C@H](CCC(=O)O)NC(=O)[C@@H](N)Cc1c[nH]c2ccccc12)C(=O)N[C@H](C(=O)N[C@H](CCSC)C(N)=O)C(C)C) [Trp-Glu-Tyr-Met-Val-D-Met-NH2]	5.23 nM	317 nM	
WHYMV[dM]-NH2 (N-terminus assumed; SMILES CSCC[C@H](NC(=O)[C@H](Cc1ccc(O)cc1)NC(=O)[C@H](Cc1c[nH]cn1)NC(=O)[C@@H](N)Cc1c[nH]c2ccccc12)C(=O)N[C@H](C(=O)N[C@H](CCSC)C(N)=O)C(C)C) [Trp-His-Tyr-Met-Val-D-Met-NH2]	0.72 nM	31.7 nM	
WDYMV[dM]-NH2 (N-terminus assumed; SMILES CSCC[C@H](NC(=O)[C@H](Cc1ccc(O)cc1)NC(=O)[C@H](CC(=O)O)NC(=O)[C@@H](N)Cc1c[nH]c2ccccc12)C(=O)N[C@H](C(=O)N[C@H](CCSC)C(N)=O)C(C)C) [Trp-Asp-Tyr-Met-Val-D-Met-NH2]	14.3 nM	98.9 nM	
WKHMV[dM]-NH2 (N-terminus assumed; SMILES CSCC[C@H](NC(=O)[C@H](Cc1c[nH]cn1)NC(=O)[C@H](CCCCN)NC(=O)[C@@H](N)Cc1c[nH]c2ccccc12)C(=O)N[C@H](C(=O)N[C@H](CCSC)C(N)=O)C(C)C) [Trp-Lys-His-Met-Val-D-Met-NH2]	1.94 nM	280 nM	
WKYMV-NH2 [Trp-Lys-Tyr-Met-Val-NH2]	918 nM		
KYMV-NH2 [Lys-Tyr-Met-Val-NH2]	> 30000 nM		
Met-Val-[dM]-NH2 (N-terminus assumed; SMILES CSCC[C@H](N)C(=O)N[C@H](C(=O)N[C@H](CCSC)C(N)=O)C(C)C) [Met-Val-D-Met-NH2]	> 30000 nM		
